Laboratory results from patent US20160361360A1.

Target: Trop-2 (on Trop-2-expressing HCC1806 cells) (human) (UniProt P09758)
Test: cell-based or functional assay

Sequence of UniProt P09758 (P09758 27-323): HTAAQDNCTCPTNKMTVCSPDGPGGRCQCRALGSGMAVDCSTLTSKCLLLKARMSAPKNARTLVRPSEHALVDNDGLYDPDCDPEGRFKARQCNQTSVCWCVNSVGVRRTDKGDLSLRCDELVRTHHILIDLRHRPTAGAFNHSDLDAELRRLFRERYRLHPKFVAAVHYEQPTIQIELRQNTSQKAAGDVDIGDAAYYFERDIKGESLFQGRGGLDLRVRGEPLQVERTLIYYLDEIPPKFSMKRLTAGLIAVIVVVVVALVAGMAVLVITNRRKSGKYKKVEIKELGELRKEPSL

Specific lysis of HCC1806 cells relative to mock-transfected NK-92MI (flow cytometry, E:T 3:1, 3 h): 2 fold
Substance: hRS7-CAR, a human Trop-2-targeting CAR (SPCD8α-VKhRS7-(GGGGS)3-VHhRS7-HingeCD8α-TMCD8α-ICD4-1BB-ICDCD3ζ) (receptor)
Cytotoxicity by flow cytometry (percent of HCC1806 cells killed, E:T 3:1, 3 h): 42%
